Measurements from patent publication US20240294670A1 (University of Texas, published 2024).

Tests used:
Assay in all cases: anti-His co-IP of rCHI3L1 from Kupffer cell lysate, MS; listed under 'proteins bound to CHI3L1'
Q546G4_MOUSE = target: T1, Q546G4_MOUSE (mouse, UniProt Q546G4 25-608)
T1 construct: also called sp|Q546G4|Q546G4_MOUSE
Protocol: (§1) CHI3L1 interacts with CD44 on KCs. To further understand how CHI3L1 mediates the function of KCs to recruit platelets, the inventors set out to identify its receptor on KCs. They isolated KCs from WT mice treated with APAP for 3 h and incubated the cells with His-tagged rCHI3L1. The cell lysate was subjected to immunoprecipitation using an anti-His antibody. The “pulled down” fraction was subjected to LC/MS analyses. A partial list of proteins identified, including CHI3L1 itself, is shown in (Extended Data Table 1). Because CD44 is a cell membrane protein, the inventors decided to investigate it is a receptor for CHI3L1. They performed/immunoprecipitation experiments using liver homogenates obtained from WT and CD44^{-/-} mice after APAP treatment. […] Moreover, the inventors incubated rhCHI3L1 with human CD44 and then immunoprecipitated with an anti-CD44 antibody. The data confirmed a direct binding between CHI3L1 and CD44 (FIG. 3C). Consistent with the notion that many cell types express CD44, they detected CD44 express on various hepatic non-parenchymal cells (NPCs) except B cells and DCs (summarized in Extended Data Table 2). However, when they incubated liver NPCs with His-tagged rCHI3L1, the inventors observed that the only CD44-expressing cells that could bind to CHI3L1 were KCs (FIG. 3D).

Q8C6E3_MOUSE = target: T2, Q8C6E3_MOUSE (mouse, UniProt Q8C6E3 2-527)
T2 construct: also called tr|Q8C6E3|Q8C6E3_MOUSE
T2 sequence: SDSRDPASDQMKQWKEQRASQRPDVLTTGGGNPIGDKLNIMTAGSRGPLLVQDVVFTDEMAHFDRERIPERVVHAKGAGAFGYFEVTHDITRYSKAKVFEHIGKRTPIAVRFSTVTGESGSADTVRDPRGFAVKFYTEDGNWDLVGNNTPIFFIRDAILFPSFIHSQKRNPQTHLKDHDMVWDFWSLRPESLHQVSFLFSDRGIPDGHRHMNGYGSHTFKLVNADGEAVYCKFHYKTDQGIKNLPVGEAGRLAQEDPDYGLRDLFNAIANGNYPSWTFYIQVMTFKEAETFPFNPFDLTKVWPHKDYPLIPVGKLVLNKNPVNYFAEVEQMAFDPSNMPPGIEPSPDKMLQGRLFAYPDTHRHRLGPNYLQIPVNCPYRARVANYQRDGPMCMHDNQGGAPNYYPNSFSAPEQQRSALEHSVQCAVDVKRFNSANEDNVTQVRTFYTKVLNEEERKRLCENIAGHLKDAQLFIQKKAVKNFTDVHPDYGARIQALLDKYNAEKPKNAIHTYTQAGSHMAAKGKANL
Protocol: as §1

Q5FW97_MOUSE = target: T3, Q5FW97_MOUSE (mouse, UniProt Q5FW97 2-434)
T3 construct: also called tr|Q5FW97|Q5FW97_MOUSE
T3 sequence (Q5FW97 entry or part of it limits assumed): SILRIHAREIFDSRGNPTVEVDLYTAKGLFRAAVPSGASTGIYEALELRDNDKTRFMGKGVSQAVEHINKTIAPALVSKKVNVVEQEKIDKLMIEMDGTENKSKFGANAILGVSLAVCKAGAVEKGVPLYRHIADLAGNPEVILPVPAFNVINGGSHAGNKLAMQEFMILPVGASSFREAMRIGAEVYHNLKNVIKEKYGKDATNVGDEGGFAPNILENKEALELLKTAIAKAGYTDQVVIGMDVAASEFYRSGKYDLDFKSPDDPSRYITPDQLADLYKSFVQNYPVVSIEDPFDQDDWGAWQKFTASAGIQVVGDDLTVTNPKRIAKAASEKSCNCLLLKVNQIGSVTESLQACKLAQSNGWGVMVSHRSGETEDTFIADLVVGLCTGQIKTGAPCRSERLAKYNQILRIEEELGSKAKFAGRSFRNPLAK
Protocol: as §1

Q3UJ34_MOUSE = target: T4, Q3UJ34_MOUSE (mouse, UniProt Q3UJ34 1-412)
T4 construct: also called tr|Q3UJ34|Q3UJ34_MOUSE
T4 sequence: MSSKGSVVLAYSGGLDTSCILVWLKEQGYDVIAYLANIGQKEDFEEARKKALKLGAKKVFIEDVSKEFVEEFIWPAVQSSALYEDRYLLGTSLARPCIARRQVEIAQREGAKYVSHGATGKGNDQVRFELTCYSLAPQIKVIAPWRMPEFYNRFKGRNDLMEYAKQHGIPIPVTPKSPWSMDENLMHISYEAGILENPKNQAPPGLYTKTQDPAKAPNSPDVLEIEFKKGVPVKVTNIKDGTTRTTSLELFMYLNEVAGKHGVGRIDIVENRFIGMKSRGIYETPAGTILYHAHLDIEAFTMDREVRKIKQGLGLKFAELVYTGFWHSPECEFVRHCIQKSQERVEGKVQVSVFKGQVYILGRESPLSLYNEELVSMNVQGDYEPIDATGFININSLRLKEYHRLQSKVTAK
Protocol: as §1

binding result (Q546G4_MOUSE): binds | binding result (Q8C6E3_MOUSE): binds | binding result (Q5FW97_MOUSE): binds | binding result (Q3UJ34_MOUSE): binds
B1: recombinant mouse CHI3L1 (ligand)
chain: not shown
notes: His-tagged; also called mCHI3L1; mChi3l1
